Columns and labels:
SARS-CoV-2 RBD = SARS-CoV-2 RBD (SARS-CoV-2, UniProt P0DTC2); assay: ELISA
SARS-CoV RBD = SARS-CoV RBD (SARS-CoV, UniProt P59594); assay: ELISA

Binder	EC50 (SARS-CoV-2 RBD)	EC50 (SARS-CoV RBD)
C022 (antibody, V domains shown) VH: QVQLQESGPGLVKPSETLSVTCTVSGGSISSSRYYWGWIRQPPGKGLEWIGSIYYSGSTYYNPSLKSRVTISVDTSKNQFSLKLSSVTAADTAVYYCARHAAAYYDRSGYYFIEYFQHWGQGTLVTVSS VL: DIQMTQSPSTLSASVGDSVTITCRASQSISSWLAWYQQKPGKAPKLLIYKASSLESGVPSRFSGSGSGTEFTLTISSLQPDDFATYYCQQYNNYRYTFGQGTKLEIK	2.4 ng/mL	5.99 ng/mL
C130 (antibody, V domains shown) VH: QVQLVQSGAEVKKPGASVKVSCKASGYTFTNYYMHWVRQAPGQGLEWMGIINPSGGSTGYAQKFQGRVTMTRDTSTSTVYMELSSLRSEDTAVYYCARSRPTPDWYFDLWGRGTLVTVSS VL: SYELTQPPSVSVAPGKTARITCGGNNIGSKSVHWYQQKPGQAPVLVIYYDSDRPSGIPERFSGSNSGNTATLTISRVEAGDEADYYCQVWDSSSDHPGVVFGGGTKLTVL	2.05 ng/mL	> 1000 ng/mL
C215 (antibody, V domains shown) VH: EVQLLESGGGLVQPGGSLRLSCAASGFTFSSYAMSWVRQAPGKGLEWVSAITDSGDGTFYADSVKGRFTISRDNSKNTLYLQMNSLRAEDTAVYYCASEEDYSNYVGWFDPWGQGTLVTVSS VL: not shown	5.33 ng/mL	17.9 ng/mL
C150 (antibody, V domains shown) VH: EVQLVESGGGLVQPGGSLRLSCVASGFTFSSYWMHWVRQVPGKGPVWVSHINSEGSSTNYADSVRGRFTISRDNAKDTLYLQMNNLRAEDTAVYYCARPTAVAAAGNYFYYYGMDVWGQGTTVTVSS VL: QSALTQPASVSGSPGQSITISCTGTSSDVGYYNFVSWYQQHPGKAPKLMIYEVSNRPSGVSNRFSGSKSGNTASLIISGLQAEDEADYYCSSYRSSSTLVFGGGTKLTVL	8.11 ng/mL	> 1000 ng/mL
C138 (antibody, V domains shown) VH: EVQLVESGGGLVQPGGSLRLSCAASGFTFSTYWMSWVRQPPGKGLEWVANIKQDGSEKYYVDSVKGRFTISRDNAKNSLYLQMNSLRADDTAVYYCAGGTWLRSSFDYWGQGTLVTVSS VL: NFMLTQPHSVSESPGKTVTISCTGSSGSIASNYVQWYQQRPGSAPTTVIYEDNQRPSGVPDRFSGSIDSSSNSASLTISGLKTEDEADYYCQSYDSSNWVFGGGTKLTVL	2.94 ng/mL	> 1000 ng/mL
C008 (antibody, V domains shown) VH: EVQLVESGGGVVQPGRSLRLSCAASGFTFSSYGMHWVRQAPGKGLEWVTVISYDGRNKYYADSVKGRFTISRDNSKNTLYLQMNSLRAEDTAVYYCAREFGDPEWYFDYWGQGTLVTVSS VL: not shown	4.63 ng/mL	> 1000 ng/mL
C211 (antibody, V domains shown) VH: EVQLVESGGGLVQPGGSLRLSCAASEFTVSSNYMSWVRQAPGKGLEWVSVIYSGGSTFYADSVKGRFTISRDNSKNTLYLQMNSLRPEDTAVYYCARDYGDFYFDFWGQGTLVTVSS VL: EIVMTQSPATLSVSPGERATLSCRASQSVSSNLAWYQQKPGQGPRLLIYGASTRATGIPARFSGSGSGTEFTLTISSLQSEDFAVYYCQQYNNWPRTFGQGTKVEIK	2.82 ng/mL	> 1000 ng/mL
C103 (antibody, V domains shown) VH: QVQLQQWGAGLLKPSETLSLTCAVSGGSLSGFYWTWIRQPPGKGLEWIGETNHFGSTGYKPSLKSRVTISVDMSRNQFSLKVTSVTAADTAVYYCARKPLLYSDFSPGAFDIWGQGTMVTVSS VL: EIVLTQSPGTLSLSPGERATLSCRASQTVTANYLAWYQQKPGQAPRLLIYGASKRATGIPDRFSGSGSGTDFTLSISRLEPEDFAVYYCQQYTTTPRTFGGGTKVEIK	3.77 ng/mL	> 1000 ng/mL
C104 (antibody, V domains shown) VH: QVQLQQWGAGLLKPSETLSLSCAVYGGSLSGYYWSWIRQPPGKGLEWIGEINHFGSTGYNPSLKSRVTISVDTSKSQFSVKLSSVTAADTAVYYCARKPLLYSNLSPGAFDIWGQGTMVTVSS VL: EIVLTQSPGTVSLSPGERATLSCWASQSVSASYLAWYQQKPGQAPRLLIYGASSRATGIPDRFSGSGSGTDFTLTISRLEPEDFAVYYCQQYGTTPRTFGGGTKVEIK	8.31 ng/mL	> 1000 ng/mL
C009 (antibody, V domains shown) VH: not shown VL: QSALTQPPSASGSPGQSVTISCTGTSSDVGGYNYVSWYQQHPGKAPKLMIYEVSKRPSGVPDRFSGSKSGNTASLTVSGLQAEDEAEYYCSSDAGSNNVVFGGGTKLTVL	1.8 ng/mL	> 1000 ng/mL

— patent US11634477 (dated 2023)
